Source: the nanobody polyreactivity screen of Harvey et al. (2022)

Assay: yeast display, Sf9 membrane polyspecificity reagent, FACS + sequencing; frameworks hold sequencing errors
Procedure, shortened: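 In a synthetic yeast display library (Saccharomyces cerevisiae BJ5465), nanobody expression was induced with galactose for 36–48 hours. FACS gates were set low and high (top ~1%) using anti-HA fluorescence for expression and streptavidin fluorescence for binding of the Sf9 membrane reagent. Each polyreactivity label is drawn from the gate of origin.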

For “QVQLVESGGGLLQAGGSLRLSCAASGSTFDSYAMGWYRQAPGKERELVAAITNGGSTYYADSVKGRFTISRDNAKNTVYLQMNSLKPEDTAVYYCATDDYLLDYLYDYWGQGTQVTVSS”, which “polyreactivity (PSR sort gate)” value is on record?
The value was “low polyreactivity”.

With “QVQLVESGGGLVQAGGSLRLSCAASGRTFRTYVMGWYRQAPGKERELVAAITGSGGSTYYADSVKGRFTISRDNAKNTVYLQMNSLKPEDTAVYYCAADYRWDYYWYDYAEYDYWGQGTQVTVSS” as the sequence, how does the “polyreactivity (PSR sort gate)” value read?
Its value is “low polyreactivity”.

For “QVQLQESGGSPVQAGGGLRLSCAASGYISVGSVMGWYRQAPSKERELVASIDQGANTNYADSVKGRFTISRDNAKNNVYLQMNSLKPEDTAVYYCATETTYILNYWGQGTQVTVSS”, which “polyreactivity (PSR sort gate)” value is on record?
Its value is “low polyreactivity”.

Which “polyreactivity (PSR sort gate)” value does the source give for “QLQLVESGGGLVQAGGSLRLSCAPSGSIFYYSAMGWSRQAPGKESEFVAAITRNGGSTYYADSVKGRFTISRDNAKNTVYLQMNSLKPVATAVFYCNAVRVRVTSHRIRQLDYGYWGQGTQVTVSS” here?
The value was “low polyreactivity”.

For “QVQLVDSGGGLVQAGGSLRLSCAASASTFEYYTMGWYRHAPGKERQLVASIRSSGTSTYYADCVKGRFTISRDNAKNTVYLQMNSLKPEDTAVSYWAATVLSIYVSSYGFWGQGTQVTVSS”, which “polyreactivity (PSR sort gate)” value is on record?
The value was “high polyreactivity”.

With “QVQLGESGGGLVPAGGSLRLSCAASGGTFKTNAMGWYRQAPGKERELVAAITGSGTSTYYADSVKGRFTISRDNAKNTVYLHMNSLKPEDTAVYYCAADNLYHPGIGDDYWGQGTQVTVSS” as the sequence, how does the “polyreactivity (PSR sort gate)” value read?
The value was “low polyreactivity”.

With “QVQLVESGGGLVQAGGSLRLSCAASGRIFGRYAMGWYRQAPGKERELVASITYRGGGTYYADSVKGRFTISRDNAKNTVYLQMNSLKAEDTAVYYCAAALSNVRNVRSPYDYWGQGTQVTVSS” as the sequence, how does the “polyreactivity (PSR sort gate)” value read?
The value was “high polyreactivity”.

Which “polyreactivity (PSR sort gate)” value does the source give for “QVQLQESGVGLVQAGGCLSCTASCTIFGQGDMCWYRQAPGKERELVATINDGASTYYADSVKGRFTISRDKAKNTVYLQMKSLKPDVTAVYYCAVFTDITTYFGYWGQGTQVTVSS” here?
Its value is “low polyreactivity”.

Which “polyreactivity (PSR sort gate)” value does the source give for “QVQLVESGGGLVQAGGSLRLSCAASGITFYGYAMGWYRQAPGKERELVARISRSGGSTYYADSVKGRFTISRDNAKNTVYLQMNSLKPEDTAVYYCAAGYGPSGYTRYYWGQGTQVTVSS” here?
The value was “high polyreactivity”.

With “QVQLVESGGGLVQAGGSLRLSCASSGRTISSYAMGWYRQPPGKERELVAGISWRGGRTYYADSVKGRFTISRDNAKITVYLQMNSLKPEDTAVSYCAADRVRGGYRTYYWVVHLDYWGQGTQVTVSS” as the sequence, how does the “polyreactivity (PSR sort gate)” value read?
Its value is “high polyreactivity”.

With “QVQLVESGGGLVQAGGSLRLSCDASGSTFASYAMGWYRQAPGKERELVAAIRWSGGTTYYADSVKGRFTISRDNAKNTVYLLMNSLKTEDTAVYYCNADRYYLYYYWGQGTQVTVSS” as the sequence, how does the “polyreactivity (PSR sort gate)” value read?
The value was “low polyreactivity”.

With “QVQLVESGGGLVQAGGSLRLRCAASGSIFPPYAMGWYRQAPGKERELVAVISFSSGRTYYADSVKGRFTISRDNAKNTVYLQMNSQKPEDTAVYYCAADYESRNKFDYWGQGTQVTVTS” as the sequence, how does the “polyreactivity (PSR sort gate)” value read?
The value was “low polyreactivity”.

Which “polyreactivity (PSR sort gate)” value does the source give for “QVQLVEPGGGLVQAGGSLRLSCAASGFTFYDYAMGWYRQAPGKERELVARINGGGGTNYADSVKGRFTISRDNAKNTVYLQMNSLKPEDSAVYYCAADLYFRQGDVDLLRYDYWGQGTQVTVSS” here?
The value was “low polyreactivity”.

Which “polyreactivity (PSR sort gate)” value does the source give for “QVQLVESGGGLVQAGGSLRLSCAASGSIFKYYTMGWYRPAPGKERELVAAITWRGGRTYYADSVKGRFTISRDNAKNTVYLQMNSLKPEDTAVYYCNTASWGFASYYYTYNYWGQGTQVTVSS” here?
The value was “high polyreactivity”.

With “QVQLVESGGGLVQAGGSLRLSCAASGRIFTYYAMGWYRQAPGKERELVAAISRRGGSTYYADSVKGRFTISRDNAKNTVYLQMNSLKPEDTAVYYCNAPTKAGGSHYWGQGTQVTVSS” as the sequence, how does the “polyreactivity (PSR sort gate)” value read?
The value was “high polyreactivity”.

For “QVQLVESGGGLVQAGGSLRLSCAASGSTFRTYAMGWYRQAPGKERELVAAIRSRGGSTYYADSVKGRFTISRDNAKNTVYLLMNSLKPEDTAVYYCNAVPRWSYVDEDSWGQGTQVTVSS”, which “polyreactivity (PSR sort gate)” value is on record?
Its value is “high polyreactivity”.

Which “polyreactivity (PSR sort gate)” value does the source give for “QVQLVESGGGLVQAGGSLRLSCASSGRTFEDYTMGWYRQAPGKVWEWVAAITGGGSTNYADSVKGRFTISRDNAKNTVYLQMYSQKPEDTAVYYCAAHYRYNWFRRYSYWGQGTQETVSS” here?
Its value is “high polyreactivity”.

With “QVQLVESGGGLVQSGGSLRLSCAASGRIFRYYAMGSYRQAPGKERELVSAITRGGSTNYADSVKGRFTISRDNAKNTVYLQMNSLKPEDTADYYCATRQSWYPRWMDYWGQGSQVTVSS” as the sequence, how does the “polyreactivity (PSR sort gate)” value read?
Its value is “high polyreactivity”.

With “QVQLVESGVGLVQAGGSLRLSCAASGSILDYYVMGWYRQAPGKDRELVAAIRGGGSTYYADSVKGRFTFSRDNEKNTVYLQMNSLKPEDTAVYYCAKDSQTARDFDYSGQGTQVTVSS” as the sequence, how does the “polyreactivity (PSR sort gate)” value read?
The value was “low polyreactivity”.

Which “polyreactivity (PSR sort gate)” value does the source give for “QVQLVESGGGLVQAGGSLRLSCAASGGIFVGYAMGWYRQAPGKERELVAAISSGGNTYYADSVKGRFTISRDNAKNTVYLQMNSLKPEDTAVYYCAAVRQYQGYRYDYWGQGTQVTVSS” here?
The value was “high polyreactivity”.

For “QVQLVESGGGLVQAGGSLRLSCAASGRIFGYYAMGWYRPAPGKERELVAGISARGGSTYYADSVKGRFTISRDNAKNTVYLQMNSLKPEDTAVYYCNKTRHDWFRTDSIRESAEYDYWGQGTQVTVSS”, which “polyreactivity (PSR sort gate)” value is on record?
The value was “low polyreactivity”.

For “QVQLVESGGGLVQAGGSLRLSCADSGSTFAGNAMGWYRQAPGKERELVAAIVSSTGSTYYADSVKGRFTISRDNAKNTVYLQMNSLKPEDTAVYYCNKTSFLVKLDYWGQGTQVTVSS”, which “polyreactivity (PSR sort gate)” value is on record?
Its value is “low polyreactivity”.

With “QVQLVESGGGLVQAGGSLRLSCAASGRILRYYTMGWYRQAPGKERELVAAITWSGGSTNYADSVKGRFTISRDYAKNTVYLQMNSLKPEDSEVYYCNADRRKYYFTYGSWGQGTQVTVSS” as the sequence, how does the “polyreactivity (PSR sort gate)” value read?
Its value is “high polyreactivity”.

For “QVQLVESGGGLVQAGGSLRLSCAASGRIFYVYGMGWYRQAPGKERELVAAISKRGDNTYYADSVKGRFTISRDNAKNTVYLQMNSLKPEDTAVYYCAAKYNYSPRAGFNFWGQGTQVTVSS”, which “polyreactivity (PSR sort gate)” value is on record?
Its value is “high polyreactivity”.

For “QVQLVDSGGGLVQAGGSLRLSCAASGSIFRYYAMGWYRQAPGKEREFVAAINTNDAGTYYADSVKGRFTISRDNAKNTVYLQMNSLKPEDTAVYYCAADTGYPFWYDYWGQGTQVTVSS”, which “polyreactivity (PSR sort gate)” value is on record?
Its value is “high polyreactivity”.

Which “polyreactivity (PSR sort gate)” value does the source give for “QVQLVESGGRLVQAGGSLRLSCAASGSNSFRYAIGWDRQAPGKERELVARISSGGSTNYADSVKGRFTISRDNAKNTVYLQMNRLKPEDTAVYYCAKSFRYSVYPYSHYDYWGQGTQVTVSS” here?
The value was “high polyreactivity”.

With “QVQLVESGGGLVQAGGSLRLSCAASGSIFASYAMGWYRQAPGKERELVAAISWNGGSTYYADSVKGRFTISRDNAKNTVYFQMNSLKPEDTAVYYCAAVNRKSQLYGYWGQGTQVTVSS” as the sequence, how does the “polyreactivity (PSR sort gate)” value read?
The value was “high polyreactivity”.

With “QVQLVESGGGLVQAGGSLRLSCAASAYILFKYAKGSYRQAPGKERELVAGITRGGTTYYADSVKGRFTISRDNAKNTVYLQMNSLKPEDTAVYYCAVAITFSSYKFYYWGQGTQVTVSS” as the sequence, how does the “polyreactivity (PSR sort gate)” value read?
Its value is “high polyreactivity”.

For “QVQLVESGGGLVQAGGSLRLSCAASGSIFAYYAMGWYRQAPGKERELVAAIDSRGGSTYYADSVKGRFTISRDNAKNTVYLQMNSLKPEDTAVYYCAARLRYPRRGQGDNYWGQGTQVTVSS”, which “polyreactivity (PSR sort gate)” value is on record?
Its value is “low polyreactivity”.

With “QVQLVESGGGLVQAGGSLRLSCAASGSILYLNAMGWYRQAPGKERELVAAITWSGGSTSYADSVKGRFTISRDNAKNTVYLQMISLKPEDTAVYYCAAVRRGYGGVYYAGGYWGQGTQVTVSS” as the sequence, how does the “polyreactivity (PSR sort gate)” value read?
The value was “low polyreactivity”.

For “QVQLVESGGGLVQAGGSLRLSCAASGSTFTANAMGWYRQAPWKERELVAAITNSDGSTYYADSVKGRFTISRDNAKNTVYLQMNSLKPEDTAVYYCAKDYYACYWEMDYWGQGTQVTVSS”, which “polyreactivity (PSR sort gate)” value is on record?
The value was “low polyreactivity”.

Which “polyreactivity (PSR sort gate)” value does the source give for “QVQLVESGGGLVQAGGSLRLSCAASGRTFTGNAMGWYRQAPGKVRELVADINLSGGDTYYADSVKGRFTISRDNAKNTVYLQMNSLKPEDTAVYYCAADIVYSSDYGPGDYWGQGTQVTVSS” here?
The value was “high polyreactivity”.

Which “polyreactivity (PSR sort gate)” value does the source give for “QVQLVESGGGLVQAGGSLRFSCAASGNTFYQYAMGWYRQAPGKERELVAAIVWSGGTTYYADSVKGRFTISRDNAKNTVYLQMTSLKPEDTAVYYCNADYDRGPYDYDSWGQGTQVTVSS” here?
Its value is “low polyreactivity”.

For “QVQLVESGGGLVQAGGSLRLSCAASGFTFDYYAMGWYRQAPGKERELVATINGASSTNYADSVKGRFTISRDNAKNTVYLQMNSLKPEDTAVYYCNARYYGPDFVLAYDYWGQGTQVTESS”, which “polyreactivity (PSR sort gate)” value is on record?
The value was “low polyreactivity”.

With “QVQLVESGGGLVQAGGSLRLSCAASGSTFGYNAMGWYRQAPGKERELVADITARGGSTYYADSVKGRFTISRANAKNTVYLQMNSLKPEVTAVYYCAARRKRFYYYAGYDYWGQGTQVTVSS” as the sequence, how does the “polyreactivity (PSR sort gate)” value read?
Its value is “high polyreactivity”.

With “QVHLVESGGGLVQAGGSLRLSCAASGSTFRLYALGWYRQAPGKERELVAVISRSGGRTYADSVKGRFTISRDNAKNTVYLQMNSLKPVDTAVYYCAKARHKSPTYTHDSWGQGTQVTVSS” as the sequence, how does the “polyreactivity (PSR sort gate)” value read?
The value was “high polyreactivity”.

For “QVQLVESGGGLVQAGGSLRLSCAASGFISSYYAMGWYRQAPGKERELVAAITSGGRTYYADSVKGRFTISRDNAKNTDYLQMNSLKPEDTAVYYCGKYSRTNAFDYWGQGTQVTVSS”, which “polyreactivity (PSR sort gate)” value is on record?
Its value is “high polyreactivity”.

Which “polyreactivity (PSR sort gate)” value does the source give for “QVQLVESGGGLVQAGGSLRLSCAASGSIFGGYAMGWYRPAPGKERELVAAISKTGGTTYYADSVKGRFTISRDNAKNTVYLQMKSLKPEDTAVYYCNAPKRYSGSAYGYGYWGQGTQVTVSS” here?
Its value is “high polyreactivity”.

Which “polyreactivity (PSR sort gate)” value does the source give for “QVQLVESGGGLVQAGGSLRLSCAASGRTFYSYAMGWYRQAPGKERELVAAISWNGGSTYYADSVKGRFTISRDNAKNTVYLQMNSLKPEDTAVYYCAAVPLRNRWPNSWPALDYWGQGTQVTVSS” here?
The value was “high polyreactivity”.

Which “polyreactivity (PSR sort gate)” value does the source give for “QVQLVESGGGLVQAGGSLRLSCADSGSIFDIYAMGWYRQAPGKERELVADISWSGGSTYYADSVKGRFTISRDNAKNTVYLQMNSLKPEDTAVYYCAADSSRRIGEDYWGQGTQVTVSS” here?
The value was “low polyreactivity”.

With “QVQLVESGGGLVQAGGSLRLSCAASGIIIPYYAMGWYRQAPGKERELVAAISSGGSTNYADSVKGRFTISRDNAKNTVYLQMNSLKPEDTAVYYCAAKYTSYASWPIWVVDQFDYWGQGTQVTVSS” as the sequence, how does the “polyreactivity (PSR sort gate)” value read?
The value was “low polyreactivity”.

With “QVQLVESGGGLVQAGGSLRLSCAASGILFSAHAMGWYRQAPGKERELVAAISKSGSRTYYADSVKGRFTISRDNAKNTVYLQMNSLKPEDTAVYYCNAVTYSRRYAYYYWGQGTQVTVSS” as the sequence, how does the “polyreactivity (PSR sort gate)” value read?
Its value is “high polyreactivity”.

Which “polyreactivity (PSR sort gate)” value does the source give for “QVQLVESGVGLVQAGGSLRLSCAASGRIFERYAMGWYRQAPGKERELVAAIRSGGSTKYADSVKGRFTISRGNAKNTVYLQMNSLKPEDTAVYYCAAVIHYGDGYWGQGTQVTVSS” here?
Its value is “low polyreactivity”.
